Measured values: US20180037651A1 (Janssen / Centocor, published 2018)

T1: cyno GPRC5D (cyno, UniProt Q9NZD1 1-343 (human entry))
T1 construct: on transfected HEK293F or Daudi cells; also called cynomolgus monkey GPRC5D
T1 chain: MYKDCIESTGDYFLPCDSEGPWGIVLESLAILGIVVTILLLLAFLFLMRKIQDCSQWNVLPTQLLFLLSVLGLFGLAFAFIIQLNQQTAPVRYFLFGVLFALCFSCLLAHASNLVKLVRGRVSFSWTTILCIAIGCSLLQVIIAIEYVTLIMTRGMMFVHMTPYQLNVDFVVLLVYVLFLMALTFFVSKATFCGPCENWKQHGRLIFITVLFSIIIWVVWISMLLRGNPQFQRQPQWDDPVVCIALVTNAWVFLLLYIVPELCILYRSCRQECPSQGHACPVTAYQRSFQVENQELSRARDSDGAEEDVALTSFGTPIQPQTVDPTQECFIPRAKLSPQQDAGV


What was measured:
human GPRC5D [1] = molecular target: T2, human GPRC5D (human, UniProt Q9NZD1 1-345); assay: FACS, human GPRC5D HEK293F cells
T2 construct: on transfected HEK293/RBL cells or endogenous on myeloma cells (H929, MM1R, OPM2, LP1, JIM3, patient plasma cells); also called G protein-coupled receptor class C group 5 member D; hGPRC5D
T2 sequence (Q9NZD1 whole entry): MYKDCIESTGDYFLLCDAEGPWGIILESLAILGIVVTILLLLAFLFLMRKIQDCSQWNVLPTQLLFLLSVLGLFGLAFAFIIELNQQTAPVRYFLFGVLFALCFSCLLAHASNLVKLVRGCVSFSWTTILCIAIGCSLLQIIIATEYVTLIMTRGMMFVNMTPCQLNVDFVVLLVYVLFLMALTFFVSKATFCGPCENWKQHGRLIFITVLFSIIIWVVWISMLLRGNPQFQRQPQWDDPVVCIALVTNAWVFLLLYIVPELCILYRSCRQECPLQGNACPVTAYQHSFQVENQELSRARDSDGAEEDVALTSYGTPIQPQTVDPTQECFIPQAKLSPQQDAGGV

cyno GPRC5D [2] = molecular target: T1, cyno GPRC5D; assay: FACS, cyno GPRC5D cells, 1 ug/ml
Protocol: Whole cell phage panning was completed using the human GPRC5D cells as antigen, as described above. […] These mAbs were initially evaluated for binding to cyno GPRC5D using FACS. […] Briefly, FACS screening was performed by normalizing protein concentration to 1 ug/ml and 100 ul of protein was mixed with 200,000 cells per well. The mAb was allowed to incubate with cells for 1 hour at 4° C. The cells were then washed three times with PBS and 0.2% FBS. […] The cells and secondary antibody were incubated for 1 hour at 4° C. The cells were then washed three times with PBS and 0.2% FBS. The cells were washed again using PBS and 0.2% FBS and then analyzed on FACSarry.

cyno GPRC5D [3] = molecular target: T1, cyno GPRC5D; assay: FACS, cyno GPRC5D HEK293F cells
human GPRC5D [4] = molecular target: T2, human GPRC5D; assay: FACS, human GPRC5D cells

| Binder | MFI (human GPRC5D [1]) | MFI (cyno GPRC5D [2]) | MFI (cyno GPRC5D [3]) | MFI (human GPRC5D [4]) |
| --- | --- | --- | --- | --- |
| GC5B253 (antibody, V domains shown, GC5H42+PH9L4) VH: QVQLVQSGAEVKKPGSSVKVSCKASGGTFSSYGISWVRQAPGQGLEWMGGIIPIFGNINYAQKFQGRVTITADESTSTAYMELSSLRSEDTAVYYCARVSRRFKRFAYYFDYWGQGTLVTVSS VL: not shown | – | 574 MFI | – | – |
| GC5B331 (antibody, V domains shown, GC5H35+PH9L2) VH: EVQLVQSGAEVKKPGESLKISCKGSGYSFTSYWIGWVRQMPGKGLEWMGIIYPGDSDTRYSPSFQGQVTISADKSISTAYLQWSSLKASDTAMYYCARIGFYGRSFRIFDYWGQGTLVTVSS VL: not shown | – | 552 MFI | – | – |
| GC5B333 (printed with GC5H35) (antibody, V domains shown, GC5H35+PH9L4) VH: EVQLVQSGAEVKKPGESLKISCKGSGYSFTSYWIGWVRQMPGKGLEWMGIIYPGDSDTRYSPSFQGQVTISADKSISTAYLQWSSLKASDTAMYYCARIGFYGRSFRIFDYWGQGTLVTVSS VL: not shown | – | 1590 MFI | – | – |
| GC5B80 (antibody, V domains shown, GC5H40+PH9L3) VH: not shown VL: EIVLTQSPATLSLSPGERATLSCRASQSVSSYLAWYQQKPGQAPRLLIYDASNRATGIPARFSGSGSGTDFTLTISSLEPEDFAVYYCQQRSNWPLTFGQGTKVEIK | – | 428 MFI | – | – |
| GC5B320 (printed with GC5H92) (antibody, V domains shown) VH: not shown VL: EIVLTQSPATLSLSPGERATLSCRASQSVSSYLAWYQQKPGQAPRLLIYDASNRATGIPARFSGSGSGTDFTLTISSLEPEDFAVYYCQQRSNWPLTFGQGTKVEIK | – | 297 MFI | – | – |
| GC5B332 (printed with GC5H89) (antibody, V domains shown) VH: EVQLVQSGAEVKKPGESLKISCKGSGYSFTSYWIGWVRQMPGKGLEWMGIIYPGDSDTRYSPSFQGQVTISADKSISTAYLQWSSLKASDTAMYYCARIGFYGRSFRIFDYWGQGTLVTVSS VL: EIVLTQSPATLSLSPGERATLSCRASQSVSSYLAWYQQKPGQAPRLLIYDASNRATGIPARFSGSGSGTDFTLTISSLEPEDFAVYYCQQRSNWPLTFGQGTKVEIK | – | 299 MFI | – | – |
| GC5B320 (antibody, IgG1, V domains shown, GC5H58+PH9L3 (L6); human IgG4PAA) VH: not shown VL: EIVLTQSPATLSLSPGERATLSCRASQSVSSYLAWYQQKPGQAPRLLIYDASNRATGIPARFSGSGSGTDFTLTISSLEPEDFAVYYCQQRSNWPLTFGQGTKVEIK | 22900 MFI | 49600 MFI | 63300 MFI | – |
| GC5B164 (antibody, IgG1, V domains shown, GC5H36+PH9L3 (L6); human IgG4PAA) VH: EVQLVQSGAEVKKPGESLKISCKGSGYSFTSYWIGWVRQMPGKGLEWMGIIYPGDSDTRYSPSFQGQVTISADKSISTAYLQWSSLKASDTAMYYCARVYSFGGRHKALFDYWGQGTLVTVSS VL: EIVLTQSPATLSLSPGERATLSCRASQSVSSYLAWYQQKPGQAPRLLIYDASNRATGIPARFSGSGSGTDFTLTISSLEPEDFAVYYCQQRSNWPLTFGQGTKVEIK | 12700 MFI | 122000 MFI | 78700 MFI | – |
| GC5B505 (antibody, V domains shown, GC5B164 PTM variant; also called GC5H244) VH: EVQLVQSGAEVKKPGESLKISCKGSGYSFTSYWIGWVRQMPGKGLEWMGIIYPGYSDTRYSPSFQGQVTISADKSISTAYLQWSSLKASDTAMYYCARVYSFGGRHKALFDYWGQGTLVTVSS VL: EIVLTQSPATLSLSPGERATLSCRASQSVSSYLAWYQQKPGQAPRLLIYDASNRATGIPARFSGSGSGTDFTLTISSLEPEDFAVYYCQQRSNWPLTFGQGTKVEIK | – | – | – | > 10000 mfi |
| GC5B496 (antibody, V domains shown, GC5B164 PTM variant; also called GC5H253) VH: EVQLVQSGAEVKKPGESLKISCKGSGYSFTSYYIGWVRQMPGKGLEWMGIIYPGDSDTRYSPSFQGQVTISADKSISTAYLQWSSLKASDTAMYYCARVYSFGGRHKALFDYWGQGTLVTVSS VL: EIVLTQSPATLSLSPGERATLSCRASQSVSSYLAWYQQKPGQAPRLLIYDASNRATGIPARFSGSGSGTDFTLTISSLEPEDFAVYYCQQRSNWPLTFGQGTKVEIK | – | – | – | > 10000 mfi |
| GC5B504 (antibody, V domains shown, GC5B164 PTM variant; also called GC5H245) VH: EVQLVQSGAEVKKPGESLKISCKGSGYSFTSYWIGWVRQMPGKGLEWMGIIYPGESDTRYSPSFQGQVTISADKSISTAYLQWSSLKASDTAMYYCARVYSFGGRHKALFDYWGQGTLVTVSS VL: EIVLTQSPATLSLSPGERATLSCRASQSVSSYLAWYQQKPGQAPRLLIYDASNRATGIPARFSGSGSGTDFTLTISSLEPEDFAVYYCQQRSNWPLTFGQGTKVEIK | – | – | – | > 10000 mfi |
| GC5B503 (antibody, V domains shown, GC5B164 PTM variant; also called GC5H246) VH: EVQLVQSGAEVKKPGESLKISCKGSGYSFTSYWIGWVRQMPGKGLEWMGIIYPGKSDTRYSPSFQGQVTISADKSISTAYLQWSSLKASDTAMYYCARVYSFGGRHKALFDYWGQGTLVTVSS VL: EIVLTQSPATLSLSPGERATLSCRASQSVSSYLAWYQQKPGQAPRLLIYDASNRATGIPARFSGSGSGTDFTLTISSLEPEDFAVYYCQQRSNWPLTFGQGTKVEIK | – | – | – | > 10000 mfi |
| GC5B495 (antibody, V domains shown, GC5B164 PTM variant; also called GC5H254) VH: EVQLVQSGAEVKKPGESLKISCKGSGYSFTSYAIGWVRQMPGKGLEWMGIIYPGYSDTRYSPSFQGQVTISADKSISTAYLQWSSLKASDTAMYYCARVYSFGGRHKALFDYWGQGTLVTVSS VL: EIVLTQSPATLSLSPGERATLSCRASQSVSSYLAWYQQKPGQAPRLLIYDASNRATGIPARFSGSGSGTDFTLTISSLEPEDFAVYYCQQRSNWPLTFGQGTKVEIK | – | – | – | 1000 to 10000 mfi |
| GC5B243 (antibody, IgG1, V domains shown, human IgG4PAA) VH: EVQLLESGGGLVQPGGSLRLSCAASGFTFSDYGMHWVRQAPGKGLEWVSAIKYSGGSTYYADSVKGRFTISRDNSKNTLYLQMNSLRAEDTAVYYCAKRAESGPGLDYWGQGTLVTVSS VL: not shown | 20500 MFI | 117000 MFI | 67800 MFI | – |

The remaining lines, values ahead:

| MFI (human GPRC5D [1]) | MFI (cyno GPRC5D [2]) | MFI (cyno GPRC5D [3]) | MFI (human GPRC5D [4]) | Binder |
| --- | --- | --- | --- | --- |
| 11400 MFI | 213000 MFI | 74500 MFI | – | GC5B251 (antibody, IgG1, V domains shown, human IgG4PAA) VH: QVQLVQSGAEVKKPGSSVKVSCKASGGTFSSYGISWVRQAPGQGLEWMGGIIPIFGNINYAQKFQGRVTITADESTSTAYMELSSLRSEDTAVYYCARVSRRFKRFAYYFDYWGQGTLVTVSS VL: not shown |
| 1500 MFI | 63300 MFI | 22000 MFI | – | GC5B252 (antibody, V domains shown, GC5H42+PH9L3) VH: QVQLVQSGAEVKKPGSSVKVSCKASGGTFSSYGISWVRQAPGQGLEWMGGIIPIFGNINYAQKFQGRVTITADESTSTAYMELSSLRSEDTAVYYCARVSRRFKRFAYYFDYWGQGTLVTVSS VL: EIVLTQSPATLSLSPGERATLSCRASQSVSSYLAWYQQKPGQAPRLLIYDASNRATGIPARFSGSGSGTDFTLTISSLEPEDFAVYYCQQRSNWPLTFGQGTKVEIK |
| – | 249 MFI | – | – | GC5B284 (antibody, V domains shown, GC5H14+PH9L3) VH: not shown VL: EIVLTQSPATLSLSPGERATLSCRASQSVSSYLAWYQQKPGQAPRLLIYDASNRATGIPARFSGSGSGTDFTLTISSLEPEDFAVYYCQQRSNWPLTFGQGTKVEIK |
| – | – | – | > 10000 mfi | GC5B498 (antibody, V domains shown, GC5B164 PTM variant; also called GC5H251) VH: EVQLVQSGAEVKKPGESLKISCKGSGYSFTSYFIGWVRQMPGKGLEWMGIIYPGDSDTRYSPSFQGQVTISADKSISTAYLQWSSLKASDTAMYYCARVYSFGGRHKALFDYWGQGTLVTVSS VL: EIVLTQSPATLSLSPGERATLSCRASQSVSSYLAWYQQKPGQAPRLLIYDASNRATGIPARFSGSGSGTDFTLTISSLEPEDFAVYYCQQRSNWPLTFGQGTKVEIK |
| – | – | – | > 10000 mfi | GC5B497 (antibody, V domains shown, GC5B164 PTM variant; also called GC5H252) VH: EVQLVQSGAEVKKPGESLKISCKGSGYSFTSYVIGWVRQMPGKGLEWMGIIYPGDSDTRYSPSFQGQVTISADKSISTAYLQWSSLKASDTAMYYCARVYSFGGRHKALFDYWGQGTLVTVSS VL: EIVLTQSPATLSLSPGERATLSCRASQSVSSYLAWYQQKPGQAPRLLIYDASNRATGIPARFSGSGSGTDFTLTISSLEPEDFAVYYCQQRSNWPLTFGQGTKVEIK |
| – | – | – | > 10000 mfi | GC5B502 (antibody, V domains shown, GC5B164 PTM variant; also called GC5H247) VH: EVQLVQSGAEVKKPGESLKISCKGSGYSFTSYWIGWVRQMPGKGLEWMGIIYPGSSDTRYSPSFQGQVTISADKSISTAYLQWSSLKASDTAMYYCARVYSFGGRHKALFDYWGQGTLVTVSS VL: EIVLTQSPATLSLSPGERATLSCRASQSVSSYLAWYQQKPGQAPRLLIYDASNRATGIPARFSGSGSGTDFTLTISSLEPEDFAVYYCQQRSNWPLTFGQGTKVEIK |
| – | – | – | > 10000 mfi | GC5B501 (antibody, V domains shown, GC5B164 PTM variant; also called GC5H248) VH: EVQLVQSGAEVKKPGESLKISCKGSGYSFTSYWIGWVRQMPGKGLEWMGIIYPGASDTRYSPSFQGQVTISADKSISTAYLQWSSLKASDTAMYYCARVYSFGGRHKALFDYWGQGTLVTVSS VL: EIVLTQSPATLSLSPGERATLSCRASQSVSSYLAWYQQKPGQAPRLLIYDASNRATGIPARFSGSGSGTDFTLTISSLEPEDFAVYYCQQRSNWPLTFGQGTKVEIK |
| 840 MFI | 22000 MFI | 7600 MFI | – | GC5B163 (antibody, V domains shown, GC5H36+PH9L2) VH: EVQLVQSGAEVKKPGESLKISCKGSGYSFTSYWIGWVRQMPGKGLEWMGIIYPGDSDTRYSPSFQGQVTISADKSISTAYLQWSSLKASDTAMYYCARVYSFGGRHKALFDYWGQGTLVTVSS VL: not shown |
